This sample holds only a part of the variants without activity.
B1: TPR 5TU (parent)
chain: GGAUCUUCUCGAUCUAACAAAAAAGACAAAUCUGCCACAAAGCUUGAGAGCAUCUUCGGAUGCAGAGGCGGCAGCCUUCGGUGGCGCGAUAGCGCCAACGUUCUCAACUAUGACACGCAAAACGCGUGCUCCGUUGAAUGGAGUUUAUCAUG

Variants of: B1
Assay: polymerase ribozyme fitness, log enrichment relative to wild type (log ratio); higher = more active; in vitro selection for triplet polymerase activity
How it was run: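 After PCR construction and transcription, each subunit's mutant library from a heterodimeric triplet polymerase ribozyme was annealed with a biotinylated primer, the partner subunit and triplets. Incubation was frozen, at −7 °C, and extended constructs were gel-excised, bound to streptavidin beads and amplified by RT-PCR, in one selection round done in triplicate. Fitness is the logarithm of a genotype's enrichment divided by that of the wild type, from inverse-variance-weighted replicate averages of Illumina-sequenced inputs and outputs. The base of the logarithm is 2, and genotypes needed ≥10 input reads and ≥1 read per output.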
In the case of G62A A120C, the “polymerase ribozyme fitness (log ratio)” value is reported as -1.04. In the case of C10U C14G U15G A29C C38U G58A A91G U127G C149U, the “polymerase ribozyme fitness (log ratio)” value is reported as no more than -4.2. For A19C A106C, the “polymerase ribozyme fitness (log ratio)” value was 0.458. With A64C C72G A91C A106U U109G C123A U148C the “polymerase ribozyme fitness (log ratio)” value was no more than -4.2. In the case of U55C A91U U144A, the “polymerase ribozyme fitness (log ratio)” value is reported as no more than -4.2. With G46A A47G C72A C108U U144A the “polymerase ribozyme fitness (log ratio)” value was no more than -4.2. In the case of G42U C76A C93U C96U U145C, the “polymerase ribozyme fitness (log ratio)” value is reported as no more than -4.2. In the case of U9G A22G U31G A41G A91U C93U U135G, the “polymerase ribozyme fitness (log ratio)” value is reported as no more than -4.2. For A121C U139G G140A U144G, the “polymerase ribozyme fitness (log ratio)” value was -4.07. In the case of C5G C85U G88U C105G A119C, the “polymerase ribozyme fitness (log ratio)” value is reported as no more than -4.2. For G25U C87U, the “polymerase ribozyme fitness (log ratio)” value was -2.63. With U53A U55G A64U C75U A91C C116U U144A the “polymerase ribozyme fitness (log ratio)” value was no more than -4.2. With U82G C85A A89G G133A A142C the “polymerase ribozyme fitness (log ratio)” value was no more than -4.2. For C76A A119U, the “polymerase ribozyme fitness (log ratio)” value was -0.979. In the case of U31C U45C A49U G80A C114A U130C U134A, the “polymerase ribozyme fitness (log ratio)” value is reported as no more than -4.2. For A47C A73U G83C C118A, the “polymerase ribozyme fitness (log ratio)” value was no more than -4.2. In the case of A41C G81C U82C A97C, the “polymerase ribozyme fitness (log ratio)” value is reported as -0.593. For A17U A24C C32A G100A, the “polymerase ribozyme fitness (log ratio)” value was no more than -4.2. In the case of C14G G34U A41C U77G G83U A115G U135G, the “polymerase ribozyme fitness (log ratio)” value is reported as no more than -4.2. For C14U C27G C35G A39U U82A G86A A97U, the “polymerase ribozyme fitness (log ratio)” value was no more than -4.2. In the case of A26U A60C G80C A91U A121C, the “polymerase ribozyme fitness (log ratio)” value is reported as no more than -4.2. For C93U U148G, the “polymerase ribozyme fitness (log ratio)” value was -3.7. In the case of A17C U33G G71A C85U G88U U111C A142G U146C, the “polymerase ribozyme fitness (log ratio)” value is reported as no more than -4.2. In the case of C96U C125A U144G, the “polymerase ribozyme fitness (log ratio)” value is reported as -0.161. For U6A C10A C27G G46C C69A C93U G94C A97C, the “polymerase ribozyme fitness (log ratio)” value was no more than -4.2. For U9G A16U C32A C85G U135C G152U, the “polymerase ribozyme fitness (log ratio)” value was no more than -4.2. For C27U U45A G81A G124U, the “polymerase ribozyme fitness (log ratio)” value was no more than -4.2. With A22U C32U A47U G83A C125U the “polymerase ribozyme fitness (log ratio)” value was no more than -4.2. In the case of A19G C35U C75G C129A U135C U145G, the “polymerase ribozyme fitness (log ratio)” value is reported as no more than -4.2. With G42A G83C C96G C105U A110G U139C the “polymerase ribozyme fitness (log ratio)” value was no more than -4.2. In the case of U31C A40C A41C, the “polymerase ribozyme fitness (log ratio)” value is reported as -0.373. In the case of A3C U9G U33G A49U G74U U77G C93G U104A, the “polymerase ribozyme fitness (log ratio)” value is reported as no more than -4.2. In the case of G59C U82G G143C, the “polymerase ribozyme fitness (log ratio)” value is reported as -2.29. For G59C U111G, the “polymerase ribozyme fitness (log ratio)” value was no more than -4.2. With G94C C103U the “polymerase ribozyme fitness (log ratio)” value was -0.0253. With A41G C93A A147C the “polymerase ribozyme fitness (log ratio)” value was -1.52. For A20C A40C C103U U145C, the “polymerase ribozyme fitness (log ratio)” value was -0.185. For U9C U15G A17U A21U C27G U56A G68A, the “polymerase ribozyme fitness (log ratio)” value was no more than -4.2. For G84A U101C U146A, the “polymerase ribozyme fitness (log ratio)” value was -0.212. In the case of A47U G58U G84A C93G U148A, the “polymerase ribozyme fitness (log ratio)” value is reported as no more than -4.2. For A41U C123G, the “polymerase ribozyme fitness (log ratio)” value was -1.42. In the case of A19G C35U G58A C85A G143A, the “polymerase ribozyme fitness (log ratio)” value is reported as -3.66. For G117A A150C, the “polymerase ribozyme fitness (log ratio)” value was -3.86. For U6A A21U U55A, the “polymerase ribozyme fitness (log ratio)” value was -0.47. For U9C A52C U61A C96G C103G A142C, the “polymerase ribozyme fitness (log ratio)” value was -4. For G48U C57U G58C G62C G67A U82A G86A, the “polymerase ribozyme fitness (log ratio)” value was no more than -4.2. In the case of A41C U53A, the “polymerase ribozyme fitness (log ratio)” value is reported as -1.22. With A22C A40U G81U C93A C99U C116A the “polymerase ribozyme fitness (log ratio)” value was -3.08. In the case of C32G C76A C87A, the “polymerase ribozyme fitness (log ratio)” value is reported as no more than -4.2. With A106C C125G the “polymerase ribozyme fitness (log ratio)” value was -1.27. For A41C G50C G84A A119G, the “polymerase ribozyme fitness (log ratio)” value was -3.83. With U4A G25U C54U G92U G124A the “polymerase ribozyme fitness (log ratio)” value was -2.53. For C8A A12G U13G C51A C57A G92U G124C U144C, the “polymerase ribozyme fitness (log ratio)” value was no more than -4.2. For A21U G50C C57A A97G, the “polymerase ribozyme fitness (log ratio)” value was -3.79. With C35U U61A the “polymerase ribozyme fitness (log ratio)” value was -1.27. For C14G A23U G46U A66G G70A A91G C116G C131G, the “polymerase ribozyme fitness (log ratio)” value was no more than -4.2. For C51U C93G, the “polymerase ribozyme fitness (log ratio)” value was -3.69. In the case of A19G U102G, the “polymerase ribozyme fitness (log ratio)” value is reported as -3.38. In the case of A98G C118A C129A, the “polymerase ribozyme fitness (log ratio)” value is reported as -2.75. For A73U C79G A107U A113C, the “polymerase ribozyme fitness (log ratio)” value was no more than -4.2. For A21C C85G C114U, the “polymerase ribozyme fitness (log ratio)” value was -3.13. With U7G C72U C87A A98U A138C the “polymerase ribozyme fitness (log ratio)” value was no more than -4.2. With G68A U90G A150U the “polymerase ribozyme fitness (log ratio)” value was no more than -4.2. In the case of G25U U53A A91C G92A C105G G141C, the “polymerase ribozyme fitness (log ratio)” value is reported as no more than -4.2. In the case of A24C U56A G86A A150G, the “polymerase ribozyme fitness (log ratio)” value is reported as no more than -4.2. In the case of C38A G59U C85U U90C, the “polymerase ribozyme fitness (log ratio)” value is reported as no more than -4.2. For A21C C27G G83C A113U G140A, the “polymerase ribozyme fitness (log ratio)” value was no more than -4.2. In the case of A24G C54U, the “polymerase ribozyme fitness (log ratio)” value is reported as -2.83. For A30C C32U C36U G70U U139A A142C, the “polymerase ribozyme fitness (log ratio)” value was no more than -4.2. In the case of A23C A24U U61C G83A G112U U127G, the “polymerase ribozyme fitness (log ratio)” value is reported as no more than -4.2. For A17C A30U A60C G62A A66G G84A C118A, the “polymerase ribozyme fitness (log ratio)” value was no more than -4.2. With C5A A29C G50U C51U G88A U90C the “polymerase ribozyme fitness (log ratio)” value was no more than -4.2. For C14G C87U, the “polymerase ribozyme fitness (log ratio)” value was -2.29. For C103A A142U, the “polymerase ribozyme fitness (log ratio)” value was -3.79. In the case of G50U G58A A66U C79U C87U G88C A121C, the “polymerase ribozyme fitness (log ratio)” value is reported as no more than -4.2. In the case of G25U G62A, the “polymerase ribozyme fitness (log ratio)” value is reported as -2.84. For A12U G46U G71U A142G, the “polymerase ribozyme fitness (log ratio)” value was no more than -4.2. In the case of A23G A49C G65C G80U G86U C99A, the “polymerase ribozyme fitness (log ratio)” value is reported as no more than -4.2. With C36A A91U U145C the “polymerase ribozyme fitness (log ratio)” value was no more than -4.2. For A16C C87U C118U, the “polymerase ribozyme fitness (log ratio)” value was -2.27. With G42C C43U A60G C87A C108G A121G A142C the “polymerase ribozyme fitness (log ratio)” value was no more than -4.2. For G42A G59A G80A, the “polymerase ribozyme fitness (log ratio)” value was no more than -4.2. In the case of A52C U55A, the “polymerase ribozyme fitness (log ratio)” value is reported as -1.69. In the case of C8A A17G A21U C38U G86A C99G G126U U139G, the “polymerase ribozyme fitness (log ratio)” value is reported as no more than -4.2.

From the RNAGym collection of RNA variant scans (doi:10.1073/pnas.2313332121)
